# Target: canine CD20 with C-terminal FLAG tag, expressed on A20/cCD20/luc or EL-4/cCD20/luc cells (dog) (UniProt Q3C2E2)
# Test: cell-based or functional assay
# UniProt Q3C2E2, sequence (Q3C2E2 other isoform, or with tags, fused parts or gaps): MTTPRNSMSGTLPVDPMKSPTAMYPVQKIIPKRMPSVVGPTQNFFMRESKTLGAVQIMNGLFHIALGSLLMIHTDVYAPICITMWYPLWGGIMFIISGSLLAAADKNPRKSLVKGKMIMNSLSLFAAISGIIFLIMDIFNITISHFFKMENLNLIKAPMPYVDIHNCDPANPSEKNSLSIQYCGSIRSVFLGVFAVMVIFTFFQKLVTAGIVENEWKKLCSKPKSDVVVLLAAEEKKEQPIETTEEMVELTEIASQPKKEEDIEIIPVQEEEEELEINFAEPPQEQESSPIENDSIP
substance,measurement,value
"Dog IgG antibody (Jackson ImmunoResearch Laboratories, Inc.)","cell-mediated cytotoxicity activity (lysis rate); targets A20/cCD20/luc and EL-4/cCD20/luc, effectors NK-92/cCD16γ, E/T 10:1",< 25%
